The values below come from patent publication US20120094377A1 (EVROGEN JSC, published 2012).

Data set [1] concerns the molecule itself. Nature of the data set: FPLC gel filtration of purified protein (homodimerization). A general note: SEC sorts molecules by how far they enter the pores of the column.
Data set [2] deals with the molecule itself. Nature of the data set: FPLC gel filtration, Superdex 200 (self-association). The procedure: Gel filtration chromatography was performed using a Superdex 200 10/300 GL column (Amersham Biosciences), equilibrated with 40 mm Tris-HCl (pH 7.5), 150 mm NaCl buffer at a flow rate of 0.4 ml/min. Apparent molecular masses were calculated by interpolating an elution volume versus log (molecular mass) calibration curve using ferritin (440 kDa), catalase (232 kDa), aldolase (158 kDa), BSA (67 kDa), ovalbumin (43 kDa), chymotrypsinogen A (25 kDa), and ribonuclease A (13.7 kDa). 200 uL of each fluorescent protein at concentration 1 mg/ml were loaded.

Where a chain is given by its changes, count along the chain named.

B1: mKate2 protein (other)
chain: MVSELIKENMHMKLYMEGTVNNHHFKCTSEGEGKPYEGTQTMRIKAVEGGPLPFAFDILATSFMYGSKTFINHTQGIPDFFKQSFPEGFTWERVTTYEDGGVLTATQDTSLQDGCLIYNVKIRGVNFPSNGPVMQKKTLGWEASTETLYPADGGLEGRADMALKLVGGGHLICNLKTTYRSKKPAKNLKMPGVYYVDRRLERIKEADKETYVEQHEVAVARYCDLPSKLGHR
notes: Engineered far-red fluorescent protein derived from Entacmaea quadricolor eqFP578; The partner is a second copy of the same protein (self-association / dimerization seen by FPLC)
Consider B1, for which the binding result in data set [1] is given as “binds”.

B2: mKate2.7C (other)
chain: MVSELIKENMPMKLYMEGTVNNHHFKCTSEGEGKPYEGTQTMRIKVVEGGPLPFAFDILATSFMYGSRTFIKHPPGIPDFFKQSFPEGFTWERVTTYEDGGVLTATQDTSLQDGCLIYNVKVRGVNFPANGPVMQKKTLGWEASTETMYPADGGLEGACDMALKLVGGGHLICNLETTYRSKKPATNLKMPGVYNVDHRLERIKEADDETYVEQHEVAVARYSTGGAGDGGK
notes: A vector His tag from pQE30 is probably present but not described; It was tested for self-association by FPLC
Consider B2, for which the binding result in data set [2] is reported as “no binding (tested: >1 mg/ml)”.

B3: mKate2.5 (other)
chain: B2 chain with P11H, R68K, K72N, P75Q, V122I, M148L, T186K, H198R, D208N
notes: as for B2
As to B3, the binding result in data set [2] is “no binding (tested: >1 mg/ml)”.
